From patent US7252824B2, “Anti-neovasculature preparations for cancer” (Mannkind Corporation, priority 2001, dated 2007) come the findings set out here.

The subject of one assay is HLA-A1+ CD8+ T cells. As to the kind of experiment: gamma-IFN-based ELISPOT assay. It is filed as cell-based, human. Particulars: IFN production blocked by anti-HLA-A1 monoclonal antibody. The method, then: The wells of a nitrocellulose-backed microtiter plate were coated with capture antibody by incubating overnight at 4° C. using 50 μl/well of 4 μg/ml murine anti-human −IFN monoclonal antibody in coating buffer (35 mM sodium bicarbonate, 15 mM sodium carbonate, pH 9.5). Unbound antibody was removed by washing 4 times 5 min. with PBS. Unbound sites on the membrane then were blocked by adding 200 μl/well of RPMI medium with 10% serum and incubating 1 hr. at room temperature. Antigen stimulated CD8^+ T cells, in 1:3 serial dilutions, were seeded into the wells of the microtiter plate using 100 μl/well, starting at 2×10^5 cells/well. […] Following this incubation the plates were washed with 6 times 200 μl/well of PBS containing 0.05% Tween-20 (PBS-Tween). Detection antibody, 50 μl/well of 2 μg/ml biotinylated murine anti-human −IFN monoclonal antibody in PBS+10% fetal calf serum, was added and the plate incubated at room temperature for 2 hrs. Unbound detection antibody was removed by washing with 4 times 200 μl of PBS-Tween. 100 μl of avidin-conjugated horseradish peroxidase (Pharmingen, San Diego, Calif.) was added to each well and incubated at room temperature for 1 hr. Unbound enzyme was removed by washing with 6 times 200 μl of PBS-Tween. […] The plate was air dried and the spots counted using a stereomicroscope.
No reactivity is detected from cultures without peptide (data not shown).

For a further assay, the target named is HLA-A2.1 (Homo sapiens, UniProt P04439, D140Y/D185E/D98H/E176V/E277Q/G131W/G231S/I119V/I121R/I166T/I218V/L300P/L318F/N151K/N90K/P208A/P217A/Q86G/Q94H/R138H/R169H/T345S). The assay can be described thus: HLA-A*0201 binding assay (stabilization of surface HLA-A2.1 on T2 cells, flow cytometry). Particulars: for binding to HLA-A2.1: T2 cells, peptide 6.25-800 μg/ml, compared with control peptides. A general note: A flow cytometer gives signals particle by particle.

The next assay concerns peptide pulsed T2 cells. The assay can be described thus: Epitope specific lysis by CTL from peptide-immunized HHD-A2 mice. The class given is in vivo. Particulars: HHD-A2 mice immunized with peptide in complete Freund's adjuvants, spleen cells re-stimulated in vitro; HLA-A2+ T2 targets. From the text:
HHD-A2 mice were immunized with ED-B29-38 (SEQ ID NO. 103) in complete Freund's adjuvants and spleen cells were harvested and re-stimulated in vitro using standard methodology.

For assay [1], the target named is T1, HLA-A2.1 (HLA-A*0201) on T2 cells (human).
T1 construct: MHC class I molecule on T2 cells; also called HLA-A2+ T2 cells
The assay can be described thus: T2 cell HLA-A2.1 stabilisation, flow cytometry with FITC anti-HLA-A2.

In the case of RVDCTPLMY [SEQ ID NO 35], the “HLA restriction of the response” value in the assay with HLA-A1+ CD8+ T cells was “HLA-A1-restricted response”.

Take GLPSIPVHPI (Homo sapien) [SEQ ID NO 21]: in the assay with HLA-A2.1, the “binding to HLA-A2.1” value is “significant binding at even lower concentrations than the positive control peptides”.

Regarding RMMNDQLMFL (Homo sapien) [SEQ ID NO 40], the “binding to HLA-A2.1” value with HLA-A2.1 is given as “significant binding at even lower concentrations than the positive control peptide”. Moreover, in the assay with HLA-A2.1 (not run in parallel), the “binding activity / affinity by comparison to the controls” value is “approaches the Melan A peptide in affinity”.

Regarding MMNDQLMFL [SEQ ID NO 39], the “binding to HLA-A2.1” value with HLA-A2.1 is on record as “significant binding at even lower concentrations than the positive control peptide”.

Consider “TIIGYRITVV (Homo sapien) [SEQ ID NO 103]”, for which the “epitope specific lysis by CTL” value in the assay on peptide pulsed T2 cells is given as “able to specifically lyse peptide pulsed T2 cells”.

For GMPEGDLVYV (Homo sapien) [SEQ ID NO 6], the “binding to HLA-A2.1” value in the assay with HLA-A2.1 was “significant binding at even lower concentrations than the positive control peptides”.

On to TLRVDCTPL (Homo sapien) [SEQ ID NO 32], for which the “binding to HLA-A2.1” value with HLA-A2.1 is on record as “binds nearly as well”.

For MMNDQLMFL [PSMA663-671], in assay [1], the binding result was “binds”.
